{"source": "IntAct's records for PubMed 18378898", "parents": {"B1": {"name": "Growth/differentiation factor 11 (Mus musculus), Q9Z1W4 (parent)", "chain": "MVLAAPLLLGFLLLALELRPRGEAAEGPAAAAAAAAAAAGVGGERSSRPAPSAPPEPDGCPVCVWRQHSRELRLESIKSQILSKLRLKEAPNISREVVKQLLPKAPPLQQILDLHDFQGDALQPEDFLEEDEYHATTETVISMAQETDPAVQTDGSPLCCHFHFSPKVMFTKVLKAQLWVYLRPVPRPATVYLQILRLKPLTGEGTAGGGGGGRRHIRIRSLKIELHSRSGHWQSIDFKQVLHSWFRQPQSNWGIEINAFDPSGTDLAVTSLGPGAEGLHPFMELRVLENTKRSRRNLGLDCDEHSSESRCCRYPLTVDFEAFGWDWIIAPKRYKANYCSGQCEYMFMQKYPHTHLVQQANPRGSAGPCCTPTKMSPINMLYFNDKQQIIYGKIPGMVVDRCGCS"}, "B2": {"name": "Growth/differentiation factor 11 (Mus musculus), Q9Z1W4 (parent)", "chain": "B1 chain", "partner": "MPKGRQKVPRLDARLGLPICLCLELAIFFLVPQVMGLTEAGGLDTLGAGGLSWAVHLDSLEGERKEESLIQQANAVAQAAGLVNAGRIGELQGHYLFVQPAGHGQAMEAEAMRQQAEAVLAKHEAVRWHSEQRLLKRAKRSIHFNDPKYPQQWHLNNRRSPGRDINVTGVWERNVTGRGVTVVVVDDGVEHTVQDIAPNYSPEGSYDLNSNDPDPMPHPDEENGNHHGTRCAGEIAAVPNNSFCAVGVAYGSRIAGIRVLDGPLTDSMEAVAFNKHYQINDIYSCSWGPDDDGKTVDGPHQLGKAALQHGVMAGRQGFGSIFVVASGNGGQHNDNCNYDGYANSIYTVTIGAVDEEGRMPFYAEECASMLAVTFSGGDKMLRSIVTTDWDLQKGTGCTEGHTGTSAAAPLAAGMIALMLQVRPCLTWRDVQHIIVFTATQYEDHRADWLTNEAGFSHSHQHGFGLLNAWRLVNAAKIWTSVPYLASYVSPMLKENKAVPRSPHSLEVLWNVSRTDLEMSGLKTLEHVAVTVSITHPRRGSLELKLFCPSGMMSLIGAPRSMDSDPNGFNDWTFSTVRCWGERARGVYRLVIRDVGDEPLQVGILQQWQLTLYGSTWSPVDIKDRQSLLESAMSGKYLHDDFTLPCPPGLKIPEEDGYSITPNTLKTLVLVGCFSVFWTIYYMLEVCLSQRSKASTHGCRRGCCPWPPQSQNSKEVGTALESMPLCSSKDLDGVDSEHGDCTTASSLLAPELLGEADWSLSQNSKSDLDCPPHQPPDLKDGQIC"}, "B3": {"name": "Growth/differentiation factor 11 (Mus musculus), Q9Z1W4 (parent)", "chain": "B1 chain", "partner": "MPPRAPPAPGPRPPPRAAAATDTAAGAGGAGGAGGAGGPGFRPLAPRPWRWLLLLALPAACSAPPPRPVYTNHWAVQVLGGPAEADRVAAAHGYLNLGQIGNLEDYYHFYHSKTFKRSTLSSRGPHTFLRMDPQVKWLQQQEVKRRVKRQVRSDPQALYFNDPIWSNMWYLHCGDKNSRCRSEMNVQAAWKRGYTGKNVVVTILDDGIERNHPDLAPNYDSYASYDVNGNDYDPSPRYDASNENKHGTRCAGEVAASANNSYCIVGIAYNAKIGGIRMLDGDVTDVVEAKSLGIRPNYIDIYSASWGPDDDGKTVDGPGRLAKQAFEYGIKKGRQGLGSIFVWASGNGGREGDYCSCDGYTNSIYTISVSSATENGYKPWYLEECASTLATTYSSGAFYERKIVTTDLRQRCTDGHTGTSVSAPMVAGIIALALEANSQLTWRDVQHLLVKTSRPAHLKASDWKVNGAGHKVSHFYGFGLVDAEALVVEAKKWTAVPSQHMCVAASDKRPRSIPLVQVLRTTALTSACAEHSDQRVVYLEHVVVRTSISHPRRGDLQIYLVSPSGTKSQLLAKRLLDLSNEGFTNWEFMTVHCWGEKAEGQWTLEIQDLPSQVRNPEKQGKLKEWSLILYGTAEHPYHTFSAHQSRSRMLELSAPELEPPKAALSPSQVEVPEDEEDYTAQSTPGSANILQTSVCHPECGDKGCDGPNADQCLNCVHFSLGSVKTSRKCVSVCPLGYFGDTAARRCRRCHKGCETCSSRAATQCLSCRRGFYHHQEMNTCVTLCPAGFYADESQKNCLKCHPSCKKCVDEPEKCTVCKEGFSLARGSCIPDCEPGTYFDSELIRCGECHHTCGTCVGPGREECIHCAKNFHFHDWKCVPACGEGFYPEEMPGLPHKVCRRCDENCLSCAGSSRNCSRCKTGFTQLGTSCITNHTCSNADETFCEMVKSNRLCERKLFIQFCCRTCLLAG"}, "B4": {"name": "Growth/differentiation factor 11 (Mus musculus), Q9Z1W4 (parent)", "chain": "B1 chain", "partner": "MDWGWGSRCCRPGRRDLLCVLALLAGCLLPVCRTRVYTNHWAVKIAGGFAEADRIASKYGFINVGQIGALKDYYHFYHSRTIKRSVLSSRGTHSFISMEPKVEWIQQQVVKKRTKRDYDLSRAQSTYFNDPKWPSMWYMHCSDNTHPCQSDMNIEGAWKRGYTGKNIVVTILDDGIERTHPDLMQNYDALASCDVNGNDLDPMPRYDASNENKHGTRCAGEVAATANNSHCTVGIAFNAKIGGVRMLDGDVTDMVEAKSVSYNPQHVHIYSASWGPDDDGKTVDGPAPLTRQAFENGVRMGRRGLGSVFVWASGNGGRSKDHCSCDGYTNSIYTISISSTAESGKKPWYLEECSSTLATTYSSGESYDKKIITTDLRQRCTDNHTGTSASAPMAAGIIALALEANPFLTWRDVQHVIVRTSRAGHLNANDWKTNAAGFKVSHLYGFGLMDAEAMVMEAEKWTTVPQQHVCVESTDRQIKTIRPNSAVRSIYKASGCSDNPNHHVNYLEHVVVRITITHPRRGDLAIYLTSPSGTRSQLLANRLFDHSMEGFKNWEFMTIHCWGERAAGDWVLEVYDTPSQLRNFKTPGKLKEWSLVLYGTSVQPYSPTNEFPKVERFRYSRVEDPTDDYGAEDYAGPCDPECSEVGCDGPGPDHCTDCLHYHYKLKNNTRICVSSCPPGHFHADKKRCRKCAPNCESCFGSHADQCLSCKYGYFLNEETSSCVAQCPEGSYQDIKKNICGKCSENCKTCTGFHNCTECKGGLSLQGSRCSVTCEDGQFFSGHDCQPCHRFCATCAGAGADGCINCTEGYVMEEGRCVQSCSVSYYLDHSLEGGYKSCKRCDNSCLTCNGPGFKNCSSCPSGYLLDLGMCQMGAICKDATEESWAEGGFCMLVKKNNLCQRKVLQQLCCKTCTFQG"}}}
{"variants_of": "B1", "conditions": "with furin_human FURIN"}
{"variant": "N297D", "effect of a mutation on the interaction": "increasing interaction"}
{"variants_of": "B2", "conditions": "with pcsk7_rat Pcsk7, Q62849"}
{"variant": "N297D", "effect of a mutation on the interaction": "increasing interaction"}
{"variants_of": "B3", "conditions": "with PCSK6, P29122-1"}
{"variant": "N297D", "effect of a mutation on the interaction": "increasing interaction"}
{"variants_of": "B4", "conditions": "with Pcsk5, P41413-2"}
{"variant": "N297D", "effect of a mutation on the interaction": "increasing interaction"}
